Assays:
Format in all cases: binding
SLC13A3 = target: T1, SLC13A3 (Homo sapiens, UniProt Q8WWT9); assay: Retrogenix cell microarray screen, SLC13A3; settings: 20 μg/ml test protein; for Sequential incubation confirmatory screening result, SLC13A3: sequential staining method, expressed in HEK293 cells
T1 construct: host or cells: HEK293
T1 sequence (Q8WWT9 1-602): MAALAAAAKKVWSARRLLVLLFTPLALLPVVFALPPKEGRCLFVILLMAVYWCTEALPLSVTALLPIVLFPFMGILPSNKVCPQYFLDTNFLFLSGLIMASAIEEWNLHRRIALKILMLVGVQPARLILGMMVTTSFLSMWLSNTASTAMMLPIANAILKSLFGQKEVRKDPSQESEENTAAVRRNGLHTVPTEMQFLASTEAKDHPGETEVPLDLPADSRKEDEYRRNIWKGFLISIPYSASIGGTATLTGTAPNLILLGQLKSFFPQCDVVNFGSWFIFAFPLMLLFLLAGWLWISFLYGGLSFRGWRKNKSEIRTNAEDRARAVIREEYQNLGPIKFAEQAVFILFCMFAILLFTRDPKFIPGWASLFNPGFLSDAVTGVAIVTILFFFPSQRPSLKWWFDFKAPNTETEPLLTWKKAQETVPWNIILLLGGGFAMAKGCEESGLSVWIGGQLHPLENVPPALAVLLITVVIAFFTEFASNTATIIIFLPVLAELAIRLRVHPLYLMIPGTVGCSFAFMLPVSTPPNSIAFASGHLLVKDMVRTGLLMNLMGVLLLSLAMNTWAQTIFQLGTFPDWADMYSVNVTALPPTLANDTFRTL
Experimental: (§1) To identify potential interacting partners of HRS, and related HRS polypeptides, the Retrogenix cell microarray screening technology (Retrogenix Ltd., High Peak Rd, United Kingdom) was used to evaluate binding of a HRS-Fc fusion protein construct ([Fc-HRS(2-60)] to a library of approximately 4500 membrane bound human proteins individually expressed in HEK293 cells.
(§2) In brief, HEK293 cells were plated onto glass cover slides which have been pre-treated by the application of discrete expression vectors to enable reverse transfection and expression of each of the 4500 membrane proteins, to create a cell microarray. Transfection efficiencies were assessed via ZsGreen1 expression and exceeded the minimum threshold for all of the library members screened.
(§3) Use of a smaller HRS fragment with a Fc tag provided for high sensitivity detection via the use of an AlexaFluor647 labeled anti-human IgG Fc antibody (AF647) as the detection reagent, and readily available controls to confirm specificity. The detection antibody was used at screening concentrations of 2, 5, and 20 μg/ml, as more fully described below.
Test Protein was screened at a concentration of 20 μg/ml using two different screening formats; either a sequential staining method, or a pre-incubation staining method. Sequential staining involved, in brief, the sequential addition to the test cells, of the test protein and detection reagents, while the pre-incubation staining method involved the pre-incubation of the test protein with the detection reagents (2:1 molar ratio of test protein to detection antibody) to pre-form higher avidity complexes prior to the addition to the test cells.
(§4) Primary hits (duplicate spots) were identified by analyzing fluorescence intensity in the AlexaFluor 647 and ZsGreen1 emission channels using the ImageQuant system, following standard fluorescent methodology. […]

IGHG3 = target: T2, IGHG3 (Homo sapiens, UniProt P01860); assay: Retrogenix cell microarray screen, IGHG3; settings: sequential staining method; 20 μg/ml test protein; expressed in HEK293 cells
T2 construct: host or cells: HEK293
T2 sequence (P01860 whole entry): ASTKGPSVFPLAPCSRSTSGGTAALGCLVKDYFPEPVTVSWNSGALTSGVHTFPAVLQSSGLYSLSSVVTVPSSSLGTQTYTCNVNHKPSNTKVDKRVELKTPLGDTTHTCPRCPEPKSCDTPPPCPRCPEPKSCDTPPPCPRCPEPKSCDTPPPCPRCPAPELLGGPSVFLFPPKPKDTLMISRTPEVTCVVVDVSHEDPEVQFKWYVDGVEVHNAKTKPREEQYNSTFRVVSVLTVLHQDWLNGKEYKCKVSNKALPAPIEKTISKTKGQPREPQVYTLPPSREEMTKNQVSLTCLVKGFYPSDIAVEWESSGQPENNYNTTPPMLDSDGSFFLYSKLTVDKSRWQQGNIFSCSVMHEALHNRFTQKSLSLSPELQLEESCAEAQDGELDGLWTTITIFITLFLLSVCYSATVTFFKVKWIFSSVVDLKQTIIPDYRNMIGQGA
Experimental: as §1, §2
as §3, with “below. […]” for “below.”
as §4

MS4A1 = target: T3, MS4A1 (Homo sapiens, UniProt P11836); assay: Retrogenix cell microarray screen, MS4A1; settings: 20 μg/ml test protein
T3 construct: host or cells: HEK293
T3 sequence (P11836 1-297): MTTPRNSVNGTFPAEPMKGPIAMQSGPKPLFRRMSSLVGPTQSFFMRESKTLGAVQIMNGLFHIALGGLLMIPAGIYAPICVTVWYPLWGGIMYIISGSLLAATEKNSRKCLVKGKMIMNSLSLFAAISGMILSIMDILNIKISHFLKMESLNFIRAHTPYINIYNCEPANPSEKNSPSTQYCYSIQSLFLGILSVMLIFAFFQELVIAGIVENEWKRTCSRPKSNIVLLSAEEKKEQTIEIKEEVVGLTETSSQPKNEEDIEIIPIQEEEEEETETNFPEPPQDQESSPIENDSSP
Experimental: as §1, §2
as §3, with “below. […]” for “below.”
as §4

FCGR2A = target: T4, FCGR2A (Homo sapiens, UniProt P12318); assay: Retrogenix cell microarray screen, FCGR2A; settings: sequential staining method; 20 μg/ml test protein; expressed in HEK293 cells
T4 construct: host or cells: HEK293
T4 sequence (P12318 34-317): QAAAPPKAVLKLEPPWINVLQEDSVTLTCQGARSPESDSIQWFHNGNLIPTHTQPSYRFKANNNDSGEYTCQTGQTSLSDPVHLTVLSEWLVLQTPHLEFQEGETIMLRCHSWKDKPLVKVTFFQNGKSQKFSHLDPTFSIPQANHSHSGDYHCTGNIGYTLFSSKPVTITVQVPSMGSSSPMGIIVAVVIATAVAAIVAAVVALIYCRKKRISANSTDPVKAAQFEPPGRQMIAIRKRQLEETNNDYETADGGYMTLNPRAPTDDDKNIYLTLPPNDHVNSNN
Experimental: as §1, §2
as §3, with “below. […]” for “below.”
as §4

FCGR1A = target: T5, FCGR1A (Homo sapiens, UniProt P12314); assay: Retrogenix cell microarray screen, FCGR1A; settings: sequential staining method; 20 μg/ml test protein; expressed in HEK293 cells
T5 construct: host or cells: HEK293
T5 sequence (P12314 16-374): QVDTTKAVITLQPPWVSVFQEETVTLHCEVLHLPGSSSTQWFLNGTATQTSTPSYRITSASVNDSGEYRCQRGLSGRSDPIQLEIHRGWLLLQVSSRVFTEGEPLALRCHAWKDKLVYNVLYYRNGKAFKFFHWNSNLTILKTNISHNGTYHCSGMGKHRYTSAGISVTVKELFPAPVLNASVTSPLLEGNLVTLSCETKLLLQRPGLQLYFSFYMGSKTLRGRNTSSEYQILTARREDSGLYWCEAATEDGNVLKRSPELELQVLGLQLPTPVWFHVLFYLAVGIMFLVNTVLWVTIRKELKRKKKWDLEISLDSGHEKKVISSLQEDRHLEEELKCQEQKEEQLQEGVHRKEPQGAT
Experimental: as §1, §2
as §3, with “below. […]” for “below.”
as §4

CD86 = target: T6, CD86 (Homo sapiens, UniProt P42081); assay: Retrogenix cell microarray screen, CD86; settings: 20 μg/ml test protein
T6 construct: host or cells: HEK293
T6 sequence (P42081 24-329): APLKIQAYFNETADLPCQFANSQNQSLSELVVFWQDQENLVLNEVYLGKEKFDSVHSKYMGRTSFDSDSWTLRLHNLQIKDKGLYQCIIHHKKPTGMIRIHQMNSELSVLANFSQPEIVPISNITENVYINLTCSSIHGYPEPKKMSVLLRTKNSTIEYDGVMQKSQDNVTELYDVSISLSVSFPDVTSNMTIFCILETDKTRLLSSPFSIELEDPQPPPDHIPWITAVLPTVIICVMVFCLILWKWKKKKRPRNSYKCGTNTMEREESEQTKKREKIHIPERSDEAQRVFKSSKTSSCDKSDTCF
Experimental: as §1, §2
as §3, with “below. […]” for “below.”
as §4

[1] = pre-incubation staining method (2:1 test protein to detection antibody), HEK293 cells
[2] = sequential staining method, expressed in HEK293 cells

Pre-incubation confirmatory screening, Binding scoring, SLC13A3 (SLC13A3; [1]) | Sequential incubation confirmatory screening result, SLC13A3 (SLC13A3) | Sequential incubation confirmatory screening result, IGHG3 (IGHG3) | Pre-incubation confirmatory screening, Binding scoring, MS4A1 (MS4A1; [1]) | Sequential incubation confirmatory screening result, MS4A1 (MS4A1; [2]) | Sequential incubation confirmatory screening result, FCGR2A (FCGR2A) | Sequential incubation confirmatory screening result, FCGR1A (FCGR1A) | Pre-incubation confirmatory screening, Binding scoring, CD86 (CD86; [1]) | Sequential incubation confirmatory screening result, CD86 (CD86; [2]) | Substance
INVERSE | INVERSE | STRONG | STRONG | STRONG | NON SPEC | NON SPEC |  |  | RITUXIMAB
 | NON SPEC | STRONG |  |  | NON SPEC | NON SPEC | STRONG | STRONG | CTLA4-FC

From US20230039401A1, “COMPOSITIONS AND METHODS FOR TREATING NRP2-ASSOCIATED DISEASES” (aTyr Pharma, Inc., priority 2018, published 2023)
